Paper PMC4625211, “Putative Breast Cancer Driver Mutations in TBX3 Cause Impaired Transcriptional Repression”

Target: T1, GST-TBX3(1-342) TBX3dm (human, UniProt O15119 1-342, G129A;R130S)
T1 sequence: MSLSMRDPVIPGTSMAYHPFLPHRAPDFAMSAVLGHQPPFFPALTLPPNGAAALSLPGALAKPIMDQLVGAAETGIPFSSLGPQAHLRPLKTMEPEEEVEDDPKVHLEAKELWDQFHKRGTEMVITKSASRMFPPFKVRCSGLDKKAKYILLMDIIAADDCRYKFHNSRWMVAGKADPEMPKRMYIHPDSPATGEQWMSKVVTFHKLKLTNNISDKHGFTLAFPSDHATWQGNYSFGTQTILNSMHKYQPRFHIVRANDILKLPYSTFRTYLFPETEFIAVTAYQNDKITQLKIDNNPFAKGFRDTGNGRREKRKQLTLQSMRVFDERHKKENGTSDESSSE
Assay: EMSA; 20 mM HEPES (pH not given), 100 mM KCl, 1 mM DTT, 0.25 mM EDTA, 0.01% NP-40, 1 mM MgCl2, 8% glycerol, 100 ug/ml BSA, 1 mg/ml poly(dI-dC), 15 C, 1 h; 6% gel, 1x
Settings: protein: recombinant; tags: N-terminal GST (pGEX-2TK); label: 5' digoxigenin; blunt; self-complementary palindrome

B1: palindromic Brachyury/T-box consensus oligonucleotide (24 bp) (dsDNA)
DNA 1: AATTTCACACCTAGGTGTGAAATT
DNA 2: AATTTCACACCTAGGTGTGAAATT
  binding result: no binding
